Assay results as given in IntAct's records for PubMed 17599067.

B1: Serine/threonine-protein kinase TBK1 (Homo sapiens), Q9UHD2 (parent)
chain: MQSTSNHLWLLSDILGQGATANVFRGRHKKTGDLFAIKVFNNISFLRPVDVQMREFEVLKKLNHKNIVKLFAIEEETTTRHKVLIMEFCPCGSLYTVLEEPSNAYGLPESEFLIVLRDVVGGMNHLRENGIVHRDIKPGNIMRVIGEDGQSVYKLTDFGAARELEDDEQFVSLYGTEEYLHPDMYERAVLRKDHQKKYGATVDLWSIGVTFYHAATGSLPFRPFEGPRRNKEVMYKIITGKPSGAISGVQKAENGPIDWSGDMPVSCSLSRGLQVLLTPVLANILEADQEKCWGFDQFFAETSDILHRMVIHVFSLQQMTAHKIYIHSYNTATIFHELVYKQTKIISSNQELIYEGRRLVLEPGRLAQHFPKTTEENPIFVVSREPLNTIGLIYEKISLPKVHPRYDLDGDASMAKAITGVVCYACRIASTLLLYQELMRKGIRWLIELIKDDYNETVHKKTEVVITLDFCIRNIEKTVKVYEKLMKINLEAAELGEISDIHTKLLRLSSSQGTIETSLQDIDSRLSPGGSLADAWAHQEGTHPKDRNVEKLQVLLNCMTEIYYQFKKDKAERRLAYNEEQIHKFDKQKLYYHATKAMTHFTDECVKKYEAFLNKSEEWIRKMLHLRKQLLSLTNQCFDIEEEVSKYQEYTNELQETLPQKMFTASSGIKHTMTPIYPSSNTLVEMTLGMKKLKEEMEGVVKELAENNHILERFGSLTMDGGLRNVDCL
partner: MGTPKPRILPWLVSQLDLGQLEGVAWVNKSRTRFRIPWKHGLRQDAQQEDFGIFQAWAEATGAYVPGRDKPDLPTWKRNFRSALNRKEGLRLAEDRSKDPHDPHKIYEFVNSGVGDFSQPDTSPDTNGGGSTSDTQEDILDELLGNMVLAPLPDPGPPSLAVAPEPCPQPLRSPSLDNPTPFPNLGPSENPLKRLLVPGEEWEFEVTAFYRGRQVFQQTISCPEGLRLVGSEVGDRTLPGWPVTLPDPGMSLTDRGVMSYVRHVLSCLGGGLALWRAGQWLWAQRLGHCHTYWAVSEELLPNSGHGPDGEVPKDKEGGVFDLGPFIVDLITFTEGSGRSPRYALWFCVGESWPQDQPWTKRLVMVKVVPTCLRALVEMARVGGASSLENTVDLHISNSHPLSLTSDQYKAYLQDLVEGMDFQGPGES
B2: Inhibitor of nuclear factor kappa-B kinase subunit epsilon (Homo sapiens), Q14164 (parent)
chain: MQSTANYLWHTDDLLGQGATASVYKARNKKSGELVAVKVFNTTSYLRPREVQVREFEVLRKLNHQNIVKLFAVEETGGSRQKVLVMEYCSSGSLLSVLESPENAFGLPEDEFLVVLRCVVAGMNHLRENGIVHRDIKPGNIMRLVGEEGQSIYKLTDFGAARELDDDEKFVSVYGTEEYLHPDMYERAVLRKPQQKAFGVTVDLWSIGVTLYHAATGSLPFIPFGGPRRNKEIMYRITTEKPAGAIAGAQRRENGPLEWSYTLPITCQLSLGLQSQLVPILANILEVEQAKCWGFDQFFAETSDILQRVVVHVFSLSQAVLHHIYIHAHNTIAIFQEAVHKQTSVAPRHQEYLFEGHLCVLEPSVSAQHIAHTTASSPLTLFSTAIPKGLAFRDPALDVPKFVPKVDLQADYNTAKGVLGAGYQALRLARALLDGQELMFRGLHWVMEVLQATCRRTLEVARTSLLYLSSSLGTERFSSVAGTPEIQELKAAAELRSRLRTLAEVLSRCSQNITETQESLSSLNRELVKSRDQVHEDRSIQQIQCCLDKMNFIYKQFKKSRMRPGLGYNEEQIHKLDKVNFSHLAKRLLQVFQEECVQKYQASLVTHGKRMRVVHETRNHLRLVGCSVAACNTEAQGVQESLSKLLEELSHQLLQDRAKGAQASPPPIAPYPSPTRKDLLLHMQELCEGMKLLASDLLDNNRIIERLNRVPAPPDV
partner: B1 chain

Variants of: B1
Conditions: with irf3_human IRF3, Q14653

Variant | effect of a mutation on the interaction
L352A | disrupting interaction
I353A | disrupting interaction

Variants of: B2
Conditions: with tbk1_human TBK1, Q9UHD2

Variant | effect of a mutation on the interaction
L353A | increasing interaction
F354A | increasing interaction
